Laboratory results from the supplement of paper PMC9170038.

Tested on: MS2 coat protein
Test: apparent KD of MS2 coat protein; higher = weaker reporter binding
Settings: Eterna round: R107; input ligand: theophylline 2 mM
Procedure: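 RNA-MaP round R107: designed RNA switches with theophylline, tryptophan, arginine or FMN aptamers are transcribed on-chip within common flanks. They are titrated with SNAP-549-labelled MS2 coat protein in RNA-MaP buffer (100 mM Tris pH 7.5, 80 mM KCl, 4 mM MgCl2), without ligand or with the indicated ligand. Median apparent KD per design.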

Sequence | apparent KD of MS2 coat protein
CGCAACCCACAUGAGGAUCACCCAUGUGAAGGAGCGCCGAAUAAGGCAGGUAGGUCGCGCAUGAAUAAAUCAUGUAGGAAGCGAA [XArg-A 6 V1&2] | 33.4 nM
UGGUACAUGAGGAUCACCCAUGUUCCAGAUACCAGUGUCCCGGUGCACCCUUGGCAGCUGGUGGUACAUGAGGAUCACCCAUGUG [Exclusion Theophylline A GF13] | 73.1 nM
UAUAUAUACUCGGCCGCCACUGAGAGAGUCAUGUAAACAUGAGGAUCACCCAUGUAAUAUAUAUACAGGACCGGGAGUAUAUUAA [4.A] | 15.8 nM
GGUCAGCAGUCGGCCGCCACUAGUAUACAUGAGGAUCACCCAUGUCCCUUGCGCCUCACCGAUUUUAGGACCGGGACACUGCCUG [theeternabot_exclusion_MS2_Trp_B_9] | 40.2 nM
AGUAGUUGACAAAAGUCAGCUACAAUUGAAGGAGCGGGUGGGUGCCCAGGUAGGUCGCAAUAACAUGAGGAUCACCCAUGUAUAA [ArgAS 2 #BothOrNeither #OpenEnded] | 27.2 nM
ACAUGAGGAUCACCCAUGUGUGUAAGUCCUCGAGGACCGGUACGGCCGCCACUCGAUUGAGUGUAAGUUGAAUGUAACAUUCAAC [whbob_SS_trypto A_2s10] | 18.1 nM
GUAUUAAGAAAACUUGAUACAGUGGGUGAACGAGGACCGGUACGGCCGCCACUCGGACAUGAGGAUCACCCAUGUCCAUGUGAAA [AstrosExyTryA#11] | 17.2 nM
UGUAUGUGAUCUGAUACCAGAGUGAAUAAACCUGAGGAUCACCCUGGUACGCGAAAGCGACUCCCUUGGCAGCAGAUCGCAUACU | 21.8 nM
UAUAUAUAUCACUAACUGUUCUUGAGGUCUCGAGGACCGGUACGGCCGCCACUCGGGCCGCCUCACAUGAGGAUCACCCAUGUCC [XTryp A #3] | 89.4 nM
AUGCGGUGCGGAAGGAGCGAGUUUGCCUAUUACAUGAGGAUCACCCAUGUGGGUAAUGGGACUCAGGUAGGUCGCCGUUGUCGCA [Same State Arginine B GF 28] | 65.1 nM
ACCUGCGUUUGAUUCUAUCUGACGCAGGUUCGAGGACCGGUACGGCCGCCACUCGGACAUGAGGAUCACCCAUGUUUGACAUGGG [#03 Exclusion Tryptophan A] | 186 nM
UGACGAUACCUGGAUACCAGCGACAUGAGGAUCACCCAUGUAUGAGGAUCAGCCAUGAUAUGCCCUUGGCAGCCACGAAAGUCUU [VUVMULLIN] | 150 nM
AGCCGUACGUACGGAAACGUACGUACGGCACGAGGACCGGUACGGCCGCCACUCGCCCACAUGAGGAUCACCCAUGUAGUGGGUG [The One Line] | 53.4 nM

Same assay, conditions: Eterna round: R107; input ligand: tryptophan 2.4 mM

Sequence | apparent KD of MS2 coat protein
AAACCAAGGGAUGGGUGCCUUGGUAGUGAUACCAGCCUGGAAACAGGCCCUUGGCAGCACAUGAGGAUCACCCAUGUGAAAUAAU [TheoAX 18#OpenEnded] | 46.6 nM
GGAUAGGACAGAAGGAGCGACAUGGCGACGAAAGUCGAAACUUCACAUGAGGAUCACCCAUGUCAGGUAGGUCGCUGUCCUAUCG [ArgXB 7 #MS2Gate #StaticStem] | 47.1 nM
CUUCAACAUGAGGAUCACCCAUGUAGUGAUACCAGUCACUCAUACGACCCUUGGCAGCACAUUUUCUGUCGGCAUGUAGACGAUC [theeternabot_sameState_MS2_Theo_A_33] | 173 nM
UAGACGGCCGGAAGGAGCGGUACAUGAGGAUCACCCAUGUAUCUCUGGGCAUCCGUAGAGUGCCAGGUAGGUCGCCGGUUGCGGG [XArg-B22] | 11.4 nM
UGUAUGGACUGAAGGAGCGCCUCAAAAUAACAUGAGGAUCACCCAUGUAGGCGAAAGCCUGGGCAGGUAGGUCGCAGUCCAUACU [ArgBX 2 #StaticStem #MS2Late] | 12.4 nM
CCCAGUUAUAACAAAGGAAUAAUACUCGAAGGAGCGUCAUAGUAGGCAGGUAGGUCGCGAGACAUGAGGAUCACCCAUGUAGAGA [qvvmullin] | 32.8 nM
AAGACGCCGGGAAGGAGCGCAUCCAAACCACACAUGAGGAUCACCCAUGUAUAAAUAUGCAUGCAGGUAGGUCGCCCGAUGUCCC [Orbemative] | 36.5 nM
CCGACGAUGACUAUGGGUCAGGAGUGCGUACGAGGACCGGUACGGCCGCCACUCGAGGAGUGGGACAUGAGGAUCACCCAUGUGG [#19 Exclusion Tryptophan A] | 47.8 nM
ACGUAAUGCAGAAGGAGCGUCAUUCUCUUACAUGAGGAUCACCCAUGUUACAUGGUUUUAUGACAGGUAGGUCGCUGAAGUACGA [JR_SSArginiB_Sub004] | 86.6 nM
GUAUACAUGAGGAUCACCCAUGUACCAGAAGGAGCGCUGGAAACAGCAGGUAGGUCGCUGGUAGGUCCUCUAUCUAGACGUUCGG [EAA NP+V+V2 #4] | 139 nM
CGUUGGUGUGGAGACAUAUUGAUGACUGAAGGAGCGGGAAUAAACCCAGGUAGGUCGCAGAGAUCCACAUGAGGAUCACCCAUGU [!0.R] | 49.5 nM
UGAUCCUGCAGGGAUACCAGCGCCGCUUGAUAACUGUGCACAUGAGGAUCACCCAUGUAGCGCCCUUGGCAGCCCAGCUAGAGGG [Same State Theophylline B GF23] | 28.3 nM
AAUAACAUGAGGAUCACCCAUGUAAAAGAUACCAGAGUGAUGAUCCUCCCUUGGCAGCUUAAUAACGCUAUUGGAAACAAUAGCG [Mat - Same State Theophlline A - Mod of Eli - D7] | 59 nM
GCGUCGGUCGGAAGGAGCGACAUGAGGAUCACCCAUGUCUCCCGUUAUGGGAGUUCCUUAGGUCAGGUAGGUCGCCGACGGACGC [#1 Exclusion - Arginine B Attempt #19 (Inspired by Omei)] | 196 nM
AAUUUAAACGGAAGGAGCGUCACUUAAUAUCAACAUGAGGAUCACCCAUGUAAGGGUUGUAGACAGGUAGGUCGCCGUCAUUUGA [JR_AAArginiB_Sub023] | 35.4 nM
ACAUGAGGAUCACCCAUGUUAUUUACCGAAGGAGCGGGUAUAUACCCAGGUAGGUCGCGGACAACAUGAGGAUCACCCACAUGAG [AstrosSSArgA#21] | 27.8 nM
GUACGAGUUGAAUGUGAGACUGGCGUGGAAGGAGCGCACGGAGGUGCAGGUAGGUCGCCACAUGAGGAUCACCCAUGUCGGCUAG [XARG-A 23] | 25.9 nM
ACAUGAGGAUCACCCAUGUAGCGUAGGGAAGGAGCGGAAUAGAGUCCAGGUAGGUCGCCCAUAUGAUGAUCUCACUUAUUAUCGA [#13 Same State - Arginine A] | 22.9 nM
AGUGUUAUAACUGAUACCAGACUCUCAUGUUUACAUGAGGAUCACCCAUGUUAUUUCUUUGUCCCUUGGCAGCAGAAUUAACACA [JR_SSTheophyB_Sub010] | 215 nM
AAUUUCGUAGGUAAAAGUUUAGAAACUGAAGGAGCGUGGUAUUACACAGGUAGGUCGCAGAUUUUACAUGAGGAUCACCCAUGUU [JR_SSArginiA_Sub008] | 22.8 nM
CGCAACCCACAUGAGGAUCACCCAUGUGAAGGAGCGCCGAAUAAGGCAGGUAGGUCGCGCAUGAAUAAAUCAUGUAGGAAGCGAA [XArg-A 6 V1&2] | 29.1 nM
UGGUACAUGAGGAUCACCCAUGUUCCAGAUACCAGUGUCCCGGUGCACCCUUGGCAGCUGGUGGUACAUGAGGAUCACCCAUGUG [Exclusion Theophylline A GF13] | 37.3 nM
AGUAGUUGACAAAAGUCAGCUACAAUUGAAGGAGCGGGUGGGUGCCCAGGUAGGUCGCAAUAACAUGAGGAUCACCCAUGUAUAA [ArgAS 2 #BothOrNeither #OpenEnded] | 17.9 nM
GUAUUAAGAAAACUUGAUACAGUGGGUGAACGAGGACCGGUACGGCCGCCACUCGGACAUGAGGAUCACCCAUGUCCAUGUGAAA [AstrosExyTryA#11] | 37.7 nM
UGUAUGUGAUCUGAUACCAGAGUGAAUAAACCUGAGGAUCACCCUGGUACGCGAAAGCGACUCCCUUGGCAGCAGAUCGCAUACU | 156 nM
AUGCGGUGCGGAAGGAGCGAGUUUGCCUAUUACAUGAGGAUCACCCAUGUGGGUAAUGGGACUCAGGUAGGUCGCCGUUGUCGCA [Same State Arginine B GF 28] | 50.1 nM
ACCUGCGUUUGAUUCUAUCUGACGCAGGUUCGAGGACCGGUACGGCCGCCACUCGGACAUGAGGAUCACCCAUGUUUGACAUGGG [#03 Exclusion Tryptophan A] | 92.7 nM
UGACGAUACCUGGAUACCAGCGACAUGAGGAUCACCCAUGUAUGAGGAUCAGCCAUGAUAUGCCCUUGGCAGCCACGAAAGUCUU [VUVMULLIN] | 18.6 nM
AGCCGUACGUACGGAAACGUACGUACGGCACGAGGACCGGUACGGCCGCCACUCGCCCACAUGAGGAUCACCCAUGUAGUGGGUG [The One Line] | 103 nM
